Data from article PMC12680531, “A novel TM4SF4-targeting therapeutic antibody candidate with antitumor activity by blocking IGF1R and CD44 signaling and downregulating PD-L1 and B7-H4” (Theranostics, 2026).
No end group written: not given here.

Molecular target: T1, biotinylated hTM4SF4 (T126-E140) peptide containing a GSAGGS spacer (Homo sapiens, also: biotin, position not given here, GSAGGS spacer, position not given here)
T1 construct: human TM4SF4, residues T126-E140 of the large extracellular loop; also called biotinylated hTM4SF4 peptide; hTM4SF4 peptide
T1 chain: TWGYPFHDGDYLNDE
Experiment: SPR; Biacore T200; biotinylated hTM4SF4 peptide with GSAGGS spacer immobilised on a streptavidin chip; antibodies in two-fold dilutions (128-1 nM or 512-16 nM) in HBS-EP+; 25°C; 30 μL/min; 1:1 binding model
Settings: both partners purified

Kd: 2.66 nM
B1: murine anti-hTM4SF4 monoclonal antibody 2B7 (antibody, V domains shown)
VH: EVKLEESGPGILQPSQTLSLTCSFSGFSLSTYGIGVSWIRQPSGKGLEWLAHIWWNDNKYYNTALKSRLTISKDTSNNQVFLKIASVDTADTATYYCARKEGSSAPFAYWGQGTLVTVSA
VL: not shown
notes: VH of murine 2B7; mouse IgG1 heavy chain constant region; Vκ of murine 2B7; mouse kappa light chain constant region; murine IgG1, kappa; also called murine 2B7; anti-hTM4SF4 mAb 2B7; source: murine hybridoma, purified from culture supernatant (protein G chromatography)
